Data from patent publication US20130064817A1 (Merck Sharp & Dohme, published 2013).

Key:
[1] = target: T1, human IL-23R (human, UniProt Q5VWK5 24-353, limits assumed); assay: KinExA
T1 construct: KinExA particles are coated with biotinylated IL-23R 'or a fragment thereof, such as the extracellular domain'; also called huIL-23R; hIL-23R
T1 sequence: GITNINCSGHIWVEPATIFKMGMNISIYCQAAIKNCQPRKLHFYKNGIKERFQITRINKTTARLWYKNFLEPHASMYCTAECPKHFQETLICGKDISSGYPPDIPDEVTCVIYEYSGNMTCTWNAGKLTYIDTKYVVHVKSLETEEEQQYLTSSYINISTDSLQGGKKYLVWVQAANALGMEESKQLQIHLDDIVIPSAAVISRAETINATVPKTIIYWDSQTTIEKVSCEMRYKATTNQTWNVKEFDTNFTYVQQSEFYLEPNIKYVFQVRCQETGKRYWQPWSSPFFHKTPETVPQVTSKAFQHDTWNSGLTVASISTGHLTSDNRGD
Protocol: The equilibrium dissociation constants (Kd) for anti human IL-23R antibodies are determined using the KinExA 3000 instrument. Sapidyne Instruments Inc., Boise Id., USA KinExA uses the principle of the Kinetic Exclusion Assay method based on measuring the concentration of uncomplexed antibody in a mixture of antibody, antigen and antibody-antigen complex. The concentration of free antibody is measured by exposing the mixture to a solid-phase immobilized antigen for a very brief period of time. In practice, this is accomplished by flowing the solution phase antigen-antibody mixture past antigen-coated particles trapped in a flow cell. Data generated by the instrument are analyzed using custom software. Equilibrium constants are calculated using a mathematical theory based on the following assumptions:
PMMA particles (Sapidyne, Cat No. 440198) are coated with biotinylated IL-23R (or a fragment thereof, such as the extracellular domain) according to Sapidyne “Protocol for coating PMMA particles with biotinylated ligands having short or nonexistent linker arms.” EZ-link TFP PEO-biotin (Pierce, Cat. No. 21219) is used to make biotinylated IL-23R, as per the manufacturer's recommendations (Pierce bulletin 0874).

[2] = target: T1, human IL-23R; assay: BIAcore, antibody immobilized on CM5 chip
Protocol: (§1) BIAcore® label-free interaction analysis system determinations are performed essentially as described at Example 4 of U.S. Patent Application Publication No. 2007/0048315. Briefly, ligands (anti-IL-23R mAbs) are immobilized on a BIAcore® label-free interaction analysis system CM5 sensor chip using standard amine-coupling procedure. Kinetic constants for the various interactions are determined using BIAevaluation software 3.1. The Kd is determined using the calculated dissociation and association rate constants.

[3] = target: T2, human IL-23R on human cells (primary splenocytes; KIT225 cells) (human, UniProt Q5VWK5 24-629); assay: cell-based or functional assay
T2 sequence: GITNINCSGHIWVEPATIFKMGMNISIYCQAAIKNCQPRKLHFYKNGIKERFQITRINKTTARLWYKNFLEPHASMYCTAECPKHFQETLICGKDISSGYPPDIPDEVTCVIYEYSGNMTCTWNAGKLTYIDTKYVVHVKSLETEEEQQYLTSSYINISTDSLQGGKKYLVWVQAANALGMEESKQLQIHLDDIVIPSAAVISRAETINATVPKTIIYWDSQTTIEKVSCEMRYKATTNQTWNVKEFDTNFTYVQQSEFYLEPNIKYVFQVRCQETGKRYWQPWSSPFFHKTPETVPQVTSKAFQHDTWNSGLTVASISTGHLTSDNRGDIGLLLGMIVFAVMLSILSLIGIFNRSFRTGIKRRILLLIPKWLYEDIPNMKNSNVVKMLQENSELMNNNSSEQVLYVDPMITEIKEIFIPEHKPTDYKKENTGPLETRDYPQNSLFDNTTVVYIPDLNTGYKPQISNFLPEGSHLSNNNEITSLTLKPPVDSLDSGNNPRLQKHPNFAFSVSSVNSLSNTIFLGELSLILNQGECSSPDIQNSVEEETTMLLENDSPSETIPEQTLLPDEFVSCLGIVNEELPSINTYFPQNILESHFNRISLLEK

[4] = target: T1, human IL-23R; assay: BIAcore, essentially as in Example 4
Protocol: as §1

B1: mouse anti-human IL-23R antibody 20D7 (antibody, mouse IgG1, V domains shown)
VH: QIQLVQSGPELKKPGETVKISCKASGYTFTNYAMNWVKQAPGKGLKWMGWINTYTGEPTYSDDFKGRFAFSLETSANTAYLQINNLKNEDTAAYFCTRGGGYDEDYFDYWGQGTTLTVSS
VL: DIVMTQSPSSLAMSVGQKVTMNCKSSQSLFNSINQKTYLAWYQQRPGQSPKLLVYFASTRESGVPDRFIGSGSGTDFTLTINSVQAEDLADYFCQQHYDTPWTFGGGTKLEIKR
notes: also called m20D7; mouse 20D7 antibody
Q: With B1 as the binder, how does the Kd [1] read?
A: The Kd was 9 pM.

Q: What about the Kd [2] of the same binder?
A: The Kd was ~85 pM.

B2: humanized anti-IL-23R antibody hum20D7 (heavy chain hu20D7-c, light chain hu20D7-II-b) (antibody, human IgG1, kappa, V domains shown)
VH: QVQLVQSGAEVKKPGASVKVSCKASGYTFTNYAMNWVRQAPGQGLEWMGWINTYTGEPTYSDDFKGRVTFTLDTSTSTAYMELRSLRSDDTAVYYCARGGGYDEDYFDYWGQGTLVTVSS
VL: DIVMTQSPLSLPVTPGEPASISCKSSQSLFNTINQKTYLAWYLQKPGQSPQLLIYFASTRESGVPDRFSGSGSGTDFTLKISRVEAEDVGVYYCQQHYDTPWTFGQGTKVEIKR
Q: Which “IC50, IFN-γ production by human primary splenocytes exposed to human IL-23 (170 pM)” value [3] does the source give for B2 here?
A: The value was 34 pM.

Q: And the “IC50, STAT3 phosphorylation in KIT225 cells stimulated with 138 pM human IL-23” value [3]?
A: Its value is 34 pM.

Q: What about the Kd [4] of the same binder?
A: The Kd was 131 pM.

B3: rat anti-human IL-23R antibody 8B10 (antibody, rat IgG2a, V domains shown)
VH: EVKLVESGGGLEQPKGSLKLSCTVSGFDFNSYGMSWVRQAPGKGLDLVADINSKSYNYATYYADSVKDRFTISRDDSQSMVYLEMDNLKTEDTALYYCTVHHSDYFEYWGQGVMVTVSS
VL: DIQMTQSPASLSASLGETVSIECLASEDIYNNLAWYQQKPGKSPQLLIYHASSLQDGVPSRFSGSGSGTQYSLKINSLESEDAATYFCLQDSEYPPTFGGGTKLELKR
notes: also called r8B10; parental rat 8B10 antibody
Q: For B3, which Kd [1] is on record?
A: The Kd was 42 pM.

Q: And the Kd [2]?
A: Its Kd is ~300 pM.
